Measurements: the supplement of paper PMC10567573
± gives the standard deviation.

Assay: protein stability index of a GFP-peptide fusion (GPS, HEK-293T) (PSI 1-6); higher = more stable
Conditions: c terminus: a fixed tail appended
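Further: 24-mer peptide tiles fused after GFP, lentivirally expressed, FACS-sorted into six equal bins by GFP/DsRed ratio, decoded by Illumina sequencing, PSI is the read-weighted mean bin number.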

Sequence | protein stability index (treatment: DMSO) | protein stability index (treatment: MLN4924 1 uM, 8 h)
HHAKDSEGVEIMLGVCASGLLIYR [EPB41L3] | 2.12 ± 0.69 | 2.14 ± 0.61
HHLPLPDNWKSQVEPETRAVIRWM [CPN1] | 2.62 ± 0.34 | 2.77 ± 0.44
HKSAFNDWFSGHLNFQIEHHLFPT [FADS1] | 2.11 ± 0.18 | 2.07 ± 0.41
HNNNNNCEENEQSLPPPAGLNSSW [BNIP3L] | 4.96 ± 0.17 | 5.09 ± 0.078
HPRALPPDARPHRRPHELLPVGGR [HAGHL] | 4.48 ± 0.12 | 4.33 ± 0.23
HQDVPSQDDSKPTQRQFTILNFND [AASDHPPT] | 4.59 ± 0.27 | 4.76 ± 0.32
HQHEEIQNVRNHIHSCFSDVTCFL [ATL3] | 2.26 ± 0.15 | 2.26 ± 0.13
HQLLEPIRDFEARKCPVHGKTMEL [TRIM29] | 3.89 ± 0.17 | 3.84 ± 0.17
HQRDGTLGALHTSSKPTALPSASS [SASS6] | 4.57 ± 0.25 | 4.55 ± 0.12
HSKLTDREKTNICYLSFPDSNSGC [DENND6A] | 3.32 ± 0.26 | 3.39 ± 0.3
HSVTGFLCEPDPVHFSEAIEKFIR [ALG2] | 2.8 ± 0.21 | 2.93 ± 0.26
HTFKTRFTQPLLPAFTVWCGSFQV [FSD1] | 3.1 ± 0.55 | 2.69 ± 1.1
HTHPSACQGQRLFEKLLQLTSQNI [PLD5] | 2.21 ± 0.21 | 1.84 ± 0.37
HVKFRSLSMVSECLFSLINGDDMF [MCOLN1] | 2.84 ± 0.45 | 2.61 ± 0.45
HVLLEGEGLGQSLGNFKDDLLNVC [TRIM29] | 3.06 ± 0.041 | 3.1 ± 0.17
HVTLTLPPTQLEVNLEEIPGEGLL [C2CD2L] | 4.07 ± 0.18 | 3.96 ± 0.42
HVTNAMVLVNVLQAIYVIDFFWNE [DHCR7] | 3.08 ± 0.17 | 2.99 ± 0.34
HWACKRNHGQVVSYLLKSGADKEI [ANKRD40] | 2.59 ± 0.24 | 2.66 ± 0.28
HYAFRIFDFDDDGTLNREDLSRLV [CIB1] | 2.55 ± 0.24 | 2.78 ± 0.31
HYDLLNLNGTKVAEGHKASFCLED [LOXL2] | 4.12 ± 0.5 | 4.26 ± 0.34
ICDLARSIDFNKDGHIDINEFLEA [PPEF2] | 3.6 ± 0.31 | 4.04 ± 0.21
IDYYESKIRKIHTQRQYKEDESQS [CEP70] | 4.08 ± 0.084 | 4.2 ± 0.1

Sequence | protein stability index (treatment: DMSO) | protein stability index (treatment: MLN4924 1 uM, 8 h)
IEAGAHMDATNAFKKTAYELLDEK [FEM1A] | 4.79 ± 0.21 | 5.04 ± 0.34
IEDLRAQIFANTVDNARIVLQIDN [KRT18] | 2.6 ± 0.24 | 2.67 ± 0.35
IETEPTVHHLPLSTEKVVQETVLV [EPB41L3] | 4 ± 0.11 | 3.84 ± 0.28
IETLRLAKNYIWALSEILRIGKRP [NEUROD6] | 3.08 ± 0.73 | 2.65 ± 0.57
IFCRDTQTVFQKKNLQQTTNTTST [IQUB] | 3.32 ± 0.34 | 3.66 ± 0.26
IFIIQACRGNQHDVPVIPLDVVDN [CASP6] | 2.71 ± 0.59 | 2.49 ± 0.7
IGGVATVVCQPNEFIMPDSAVVGD [SEPHS2] | 3.72 ± 0.34 | 3.76 ± 0.44
IGIPLFFLELAVGQRIRRGSIGVW [SLC6A17] | 2.51 ± 0.34 | 2.28 ± 0.23
IGVAGNHWDGYSKGVNRKLGRTGL [FUT8] | 3.1 ± 0.16 | 2.9 ± 0.18
IHDALLEAVTCGNTEVPARNLYAY [PTPRD] | 2.29 ± 0.35 | 2.39 ± 0.14
IHSHHDGVLRPTVRPGTPPDFILK [CTDNEP1] | 3.66 ± 0.18 | 3.72 ± 0.21
IITIGYNVYHSYDLPWFRTLSWYF [CDS2] | 3.08 ± 0.23 | 3.2 ± 0.27
IITSRILVDQVTGVSRGVGFIRFD [ELAVL3] | 2.42 ± 0.53 | 2.53 ± 0.28
IIVSIVHSVFEFLAFKNDIQFWNS [CLPTM1] | 3.5 ± 0.83 | 2.75 ± 0.65
IKGKEGSALTEGAKEEGGEEVAKA [EPB41L3] | 5.81 ± 0.17 | 5.86 ± 0.12
ILAFLVLEAVAGALVVALWGPLQD [TSPAN10] | 2.85 ± 0.24 | 3.03 ± 0.27
ILDIHFLSQADFLVCTFSSQVCRV [FUT8] | 3.52 ± 0.23 | 3.09 ± 0.16
ILHLICLLEKVPCTLEQDHFKKQT [FEM1C] | 2.82 ± 0.71 | 2.25 ± 0.45
ILISFTCRFLLNSRVTDAAFNFLL [TMEM120A] | 2.9 ± 0.38 | 3.25 ± 0.23
ILKRTGQRYEHGRTLKSYLGLTNQ [ZNF649] | 2.44 ± 0.24 | 2.63 ± 0.099
ILTTSNITEKIDVAFVDRADIKQY [TRIP13] | 2.88 ± 0.2 | 3.02 ± 0.12
ILVLKTDSQDLVASFRVTTGTSNT [RBBP5] | 2.2 ± 0.41 | 2.36 ± 0.53

Sequence | protein stability index (treatment: DMSO) | protein stability index (treatment: MLN4924 1 uM, 8 h)
IMLRSNESFTMDDMSWTCGNQDYK [VDR] | 2.86 ± 0.12 | 2.61 ± 0.27
INLATMNSCINPIALYFVSKKFKN [EDNRA] | 2.83 ± 1.4 | 2.01 ± 0.13
IPAVLTVSMLGYPFILPDMVGGNA [MYORG] | 2.87 ± 0.51 | 2.63 ± 0.38
IPISLETQAHIQECKHPSVFQHGD [MCOLN1] | 4.26 ± 0.23 | 4.21 ± 0.14
IQAEERLDMEKRRCRQSLEDSESL [LRRC45] | 5.08 ± 0.27 | 5.16 ± 0.1
IQKRNQRQSGDRRQLPPPPTPANE [WAS] | 5.29 ± 0.23 | 5.16 ± 0.21
IRQLATSGRFIVIIPRTVIDGLDL [SMG5] | 2.88 ± 0.61 | 2.68 ± 0.7
IRSFGHFIARLQGSILQFNPEVGI [SMG5] | 2.45 ± 0.27 | 2.35 ± 0.25
ISAVNYDFDEEYFSNTSELAKDFI [DAPK3] | 3.01 ± 0.21 | 3.28 ± 0.58
ISFHFEVTNHNIRLFEDVRSWMFR [TRIM43] | 2.7 ± 0.96 | 3.24 ± 0.28
ISQHGDPLLSNTFTETNNHWPQGP [EMID1] | 3.87 ± 0.29 | 4.08 ± 0.16
ISSSSFGAEPSAPGGGGSPGACPA [RTN3] | 4.72 ± 0.51 | 4.97 ± 0.089
ISSVLAGGSCRAPSTYGGGLSVSS [KRT16] | 2.38 ± 0.33 | 2.27 ± 0.27
ITAGAHRLWSHRSYKARLPLRLFL [SCD] | 2.6 ± 0.63 | 2.47 ± 0.64
ITEEKVCMVCKKKIGNSAFARYPN [VPS39] | 2.73 ± 0.31 | 3.43 ± 0.53
ITESFTELARIVLLRHGMDRLWRP [RAB40B] | 2.84 ± 0.1 | 2.86 ± 0.25
ITTRVNSEQEHFLIVPFGLLYSEV [ADD1] | 2.74 ± 0.79 | 2.61 ± 0.81
ITYESSQVDPGTDLEPGVLMSAQT [EPB41L3] | 4.29 ± 0.33 | 4.7 ± 0.085
IVETLTVGCKGSKAGIEQEGYWLP [ZMYND11] | 2.21 ± 0.18 | 2.26 ± 0.14
IVSLLLGTIHALIFAWNKWIDIKQ [STEAP1] | 2.06 ± 0.44 | 2.17 ± 0.29
KADLEVSNRHGHTCLMISCYKGHK [FEM1C] | 3.03 ± 0.36 | 2.91 ± 0.33
